Test results from US20160113911A1, “METHODS AND COMPOSITIONS FOR THE TREATMENT OF CANCER” (THE GENERAL HOSPITAL CORPORATION, priority 2013, published 2016).

B1: 2A-R498H: KDM4A mutation (protein)
chain: MASESETLNPSARIMTFYPTMEEFRNFSRYIAYIESQGAHRAGLAKVVPPKEWKPRASYDDIDDLVIPAPIQQLVTGQSGLFTQYNIQKKAMTVREFRKIANSDKYCTPRYSEFEELERKYWKNLTFNPPIYGADVNGTLYEKHVDEWNIGRLRTILDLVEKESGITIEGVNTPYLYFGMWKTSFAWHTEDMDLYSINYLHFGEPKSWYSVPPEHGKRLERLAKGFFPGSAQSCEAFLRHKMTLISPLMLKKYGIPFDKVTQEAGEFMITFPYGYHAGFNHGFNCAESTNFATRRWIEYGKQAVLCSCRKDMVKISMDVFVRKFQPERYKLWKAGKDNTVIDHTLPTPEAAEFLKESELPPRAGNEEECPEEDMEGVEDGEEGDLKTSLAKHRIGTKRHRVCLEIPQEVSQSELFPKEDLSSEQYEMTECPAALAPVRPTHSSVRQVEDGLTFPDYSDSTEVKFEELKNVKLEEEDEEEEQAAAALDLSVNPASVGGHLVFSGSKKKSSSSLGSGSSRDSISSDSETSEPLSCRAQGQTGVLTVHSYAKGDGRVTVGEPCTRKKGSAARSFSERELAEVADEYMFSLEENKKSKGRRQPLSKLPRHHPLVLQECVSDDETSEQLTPEEEAEETEAWAKPLSQLWQNRPPNFEAEKEFNETMAQQAPHCAVCMIFQTYHQVEFGGFNQNCGNASDLAPQKQRTKPLIPEMCFTSTGCSTDINLSTPYLEEDGTSILVSCKKCSVRVHASCYGVPPAKASEDWMCSRCSANALEEDCCLCSLRGGALQRANDDRWVHVSCAVAILEARFVNIAERSPVDVSKIPLPRFKLKCIFCKKRRKRTAGCCVQCSHGRCPTAFHVSCAQAAGVMMQPDDWPFVVFITCFRHKIPNLERAKGALQSITAGQKVISKHKNGRFYQCEVVRLTTETFYEVNFDDGSFSDNLYPEDIVSQDCLQFGPPAEGEVVQVRWTDGQVYGAKFVASHPIQMYQVEFEDGSQLVVKRDDVYTLDEELPKRVKSRLSVASDMRFNEIFTEKEVKQEKKRQRVINSRYREDYIEPALYRAIME
B2: 2A-D524V: KDM4A mutation (protein)
chain: MASESETLNPSARIMTFYPTMEEFRNFSRYIAYIESQGAHRAGLAKVVPPKEWKPRASYDDIDDLVIPAPIQQLVTGQSGLFTQYNIQKKAMTVREFRKIANSDKYCTPRYSEFEELERKYWKNLTFNPPIYGADVNGTLYEKHVDEWNIGRLRTILDLVEKESGITIEGVNTPYLYFGMWKTSFAWHTEDMDLYSINYLHFGEPKSWYSVPPEHGKRLERLAKGFFPGSAQSCEAFLRHKMTLISPLMLKKYGIPFDKVTQEAGEFMITFPYGYHAGFNHGFNCAESTNFATRRWIEYGKQAVLCSCRKDMVKISMDVFVRKFQPERYKLWKAGKDNTVIDHTLPTPEAAEFLKESELPPRAGNEEECPEEDMEGVEDGEEGDLKTSLAKHRIGTKRHRVCLEIPQEVSQSELFPKEDLSSEQYEMTECPAALAPVRPTHSSVRQVEDGLTFPDYSDSTEVKFEELKNVKLEEEDEEEEQAAAALDLSVNPASVGGRLVFSGSKKKSSSSLGSGSSRDSISSVSETSEPLSCRAQGQTGVLTVHSYAKGDGRVTVGEPCTRKKGSAARSFSERELAEVADEYMFSLEENKKSKGRRQPLSKLPRHHPLVLQECVSDDETSEQLTPEEEAEETEAWAKPLSQLWQNRPPNFEAEKEFNETMAQQAPHCAVCMIFQTYHQVEFGGFNQNCGNASDLAPQKQRTKPLIPEMCFTSTGCSTDINLSTPYLEEDGTSILVSCKKCSVRVHASCYGVPPAKASEDWMCSRCSANALEEDCCLCSLRGGALQRANDDRWVHVSCAVAILEARFVNIAERSPVDVSKIPLPRFKLKCIFCKKRRKRTAGCCVQCSHGRCPTAFHVSCAQAAGVMMQPDDWPFVVFITCFRHKIPNLERAKGALQSITAGQKVISKHKNGRFYQCEVVRLTTETFYEVNFDDGSFSDNLYPEDIVSQDCLQFGPPAEGEVVQVRWTDGQVYGAKFVASHPIQMYQVEFEDGSQLVVKRDDVYTLDEELPKRVKSRLSVASDMRFNEIFTEKEVKQEKKRQRVINSRYREDYIEPALYRAIME
B3: 2A-E558Q: KDM4A mutation (protein)
chain: MASESETLNPSARIMTFYPTMEEFRNFSRYIAYIESQGAHRAGLAKVVPPKEWKPRASYDDIDDLVIPAPIQQLVTGQSGLFTQYNIQKKAMTVREFRKIANSDKYCTPRYSEFEELERKYWKNLTFNPPIYGADVNGTLYEKHVDEWNIGRLRTILDLVEKESGITIEGVNTPYLYFGMWKTSFAWHTEDMDLYSINYLHFGEPKSWYSVPPEHGKRLERLAKGFFPGSAQSCEAFLRHKMTLISPLMLKKYGIPFDKVTQEAGEFMITFPYGYHAGFNHGFNCAESTNFATRRWIEYGKQAVLCSCRKDMVKISMDVFVRKFQPERYKLWKAGKDNTVIDHTLPTPEAAEFLKESELPPRAGNEEECPEEDMEGVEDGEEGDLKTSLAKHRIGTKRHRVCLEIPQEVSQSELFPKEDLSSEQYEMTECPAALAPVRPTHSSVRQVEDGLTFPDYSDSTEVKFEELKNVKLEEEDEEEEQAAAALDLSVNPASVGGRLVFSGSKKKSSSSLGSGSSRDSISSDSETSEPLSCRAQGQTGVLTVHSYAKGDGRVTVGQPCTRKKGSAARSFSERELAEVADEYMFSLEENKKSKGRRQPLSKLPRHHPLVLQECVSDDETSEQLTPEEEAEETEAWAKPLSQLWQNRPPNFEAEKEFNETMAQQAPHCAVCMIFQTYHQVEFGGFNQNCGNASDLAPQKQRTKPLIPEMCFTSTGCSTDINLSTPYLEEDGTSILVSCKKCSVRVHASCYGVPPAKASEDWMCSRCSANALEEDCCLCSLRGGALQRANDDRWVHVSCAVAILEARFVNIAERSPVDVSKIPLPRFKLKCIFCKKRRKRTAGCCVQCSHGRCPTAFHVSCAQAAGVMMQPDDWPFVVFITCFRHKIPNLERAKGALQSITAGQKVISKHKNGRFYQCEVVRLTTETFYEVNFDDGSFSDNLYPEDIVSQDCLQFGPPAEGEVVQVRWTDGQVYGAKFVASHPIQMYQVEFEDGSQLVVKRDDVYTLDEELPKRVKSRLSVASDMRFNEIFTEKEVKQEKKRQRVINSRYREDYIEPALYRAIME
B4: 2A-V743I*: KDM4A mutation (protein, UniProt O75164 2-1064, looked up, variant V743I)
Lysine-specific demethylase 4A: ASESETLNPSARIMTFYPTMEEFRNFSRYIAYIESQGAHRAGLAKVVPPKEWKPRASYDDIDDLVIPAPIQQLVTGQSGLFTQYNIQKKAMTVREFRKIANSDKYCTPRYSEFEELERKYWKNLTFNPPIYGADVNGTLYEKHVDEWNIGRLRTILDLVEKESGITIEGVNTPYLYFGMWKTSFAWHTEDMDLYSINYLHFGEPKSWYSVPPEHGKRLERLAKGFFPGSAQSCEAFLRHKMTLISPLMLKKYGIPFDKVTQEAGEFMITFPYGYHAGFNHGFNCAESTNFATRRWIEYGKQAVLCSCRKDMVKISMDVFVRKFQPERYKLWKAGKDNTVIDHTLPTPEAAEFLKESELPPRAGNEEECPEEDMEGVEDGEEGDLKTSLAKHRIGTKRHRVCLEIPQEVSQSELFPKEDLSSEQYEMTECPAALAPVRPTHSSVRQVEDGLTFPDYSDSTEVKFEELKNVKLEEEDEEEEQAAAALDLSVNPASVGGRLVFSGSKKKSSSSLGSGSSRDSISSDSETSEPLSCRAQGQTGVLTVHSYAKGDGRVTVGEPCTRKKGSAARSFSERELAEVADEYMFSLEENKKSKGRRQPLSKLPRHHPLVLQECVSDDETSEQLTPEEEAEETEAWAKPLSQLWQNRPPNFEAEKEFNETMAQQAPHCAVCMIFQTYHQVEFGGFNQNCGNASDLAPQKQRTKPLIPEMCFTSTGCSTDINLSTPYLEEDGTSILVSCKKCSIRVHASCYGVPPAKASEDWMCSRCSANALEEDCCLCSLRGGALQRANDDRWVHVSCAVAILEARFVNIAERSPVDVSKIPLPRFKLKCIFCKKRRKRTAGCCVQCSHGRCPTAFHVSCAQAAGVMMQPDDWPFVVFITCFRHKIPNLERAKGALQSITAGQKVISKHKNGRFYQCEVVRLTTETFYEVNFDDGSFSDNLYPEDIVSQDCLQFGPPAEGEVVQVRWTDGQVYGAKFVASHPIQMYQVEFEDGSQLVVKRDDVYTLDEELPKRVKSRLSVASDMRFNEIFTEKEVKQEKKRQRVINSRYREDYIEPALYRAIME
B5: 2A-R765Q: KDM4A mutation (protein)
chain: MASESETLNPSARIMTFYPTMEEFRNFSRYIAYIESQGAHRAGLAKVVPPKEWKPRASYDDIDDLVIPAPIQQLVTGQSGLFTQYNIQKKAMTVREFRKIANSDKYCTPRYSEFEELERKYWKNLTFNPPIYGADVNGTLYEKHVDEWNIGRLRTILDLVEKESGITIEGVNTPYLYFGMWKTSFAWHTEDMDLYSINYLHFGEPKSWYSVPPEHGKRLERLAKGFFPGSAQSCEAFLRHKMTLISPLMLKKYGIPFDKVTQEAGEFMITFPYGYHAGFNHGFNCAESTNFATRRWIEYGKQAVLCSCRKDMVKISMDVFVRKFQPERYKLWKAGKDNTVIDHTLPTPEAAEFLKESELPPRAGNEEECPEEDMEGVEDGEEGDLKTSLAKHRIGTKRHRVCLEIPQEVSQSELFPKEDLSSEQYEMTECPAALAPVRPTHSSVRQVEDGLTFPDYSDSTEVKFEELKNVKLEEEDEEEEQAAAALDLSVNPASVGGRLVFSGSKKKSSSSLGSGSSRDSISSDSETSEPLSCRAQGQTGVLTVHSYAKGDGRVTVGEPCTRKKGSAARSFSERELAEVADEYMFSLEENKKSKGRRQPLSKLPRHHPLVLQECVSDDETSEQLTPEEEAEETEAWAKPLSQLWQNRPPNFEAEKEFNETMAQQAPHCAVCMIFQTYHQVEFGGFNQNCGNASDLAPQKQRTKPLIPEMCFTSTGCSTDINLSTPYLEEDGTSILVSCKKCSVRVHASCYGVPPAKASEDWMCSQCSANALEEDCCLCSLRGGALQRANDDRWVHVSCAVAILEARFVNIAERSPVDVSKIPLPRFKLKCIFCKKRRKRTAGCCVQCSHGRCPTAFHVSCAQAAGVMMQPDDWPFVVFITCFRHKIPNLERAKGALQSITAGQKVISKHKNGRFYQCEVVRLTTETFYEVNFDDGSFSDNLYPEDIVSQDCLQFGPPAEGEVVQVRWTDGQVYGAKFVASHPIQMYQVEFEDGSQLVVKRDDVYTLDEELPKRVKSRLSVASDMRFNEIFTEKEVKQEKKRQRVINSRYREDYIEPALYRAIME

Tests used:
H3K36me3 = assay: H3K36 demethylase activity of KDM4A variants in transfected cells (immunofluorescence); type: cell-based; design: key: + indicates active; − indicates inactive; +/− indicates partial acitivty; conditions: KDM4A mutations
H3K9me3 = assay: H3K9 demethylase activity of KDM4 variants in transfected cells; type: cell-based; design: key: + indicates active; − indicates inactive; +/− indicates partial acitivty; conditions: KDM4A mutations

Molecule | H3k36 Demethylase Activity (H3K36me3) | H3k9 Demethylase Activity (H3K9me3)
B1 | + | +
B2 | + | +
B3 | + | +
B4 | + | +
B5 | − | −
